Target: the molecule itself
Assay: crystal structure; PPS-S1-Mava (crystal type B): S1 with Mg.ADP.BeFx and 5 mM Mavacamten, trypsin 1:500 (w:w), hanging drop at 4 °C, 20.5% PEG3350, 7.5% NaTacsimate pH 6.0, 5 mM TCEP; two molecules per asymmetric unit; 2.61 Å

B1: Bovine β-cardiac myosin S1 fragment, heavy chain (domain or fragment, UniProt Q9BE39 1-810, looked up)
chain: MVDAEMAAFGEAAPYLRKSEKERLEAQTRPFDLKKDVFVPDDKEEFVKATILSREGGKVTAETEHGKTVTVKEDQVLQQNPPKFDKIEDMAMLTFLHEPAVLYNLKERYASWMIYTYSGLFCVTINPYKWLPVYNAEVVAAYRGKKRSEAPPHIFSISDNAYQYMLTDRENQSILITGESGAGKTVNTKRVIQYFAVIAAIGDRSKKEQATGKGTLEDQIIQANPALEAFGNAKTVRNDNSSRFGKFIRIHFGATGKLASADIETYLLEKSRVIFQLKAERDYHIFYQILSNKKPELLDMLLITNNPYDYAFISQGETTVASIDDAEELMATDNAFDVLGFTTEEKNSMYKLTGAIMHFGNMKFKLKQREEQAEPDGTEEADKSAYLMGLNSADLLKGLCHPRVKVGNEYVTKGQNVQQVVYAKGALAKAVYERMFNWMVTRINATLETKQPRQYFIGVLDIAGFEIFDFNSFEQLCINFTNEKLQQFFNHHMFVLEQEEYKKEGIEWEFIDFGMDLQACIDLIEKPMGIMSILEEECMFPKATDMTFKAKLFDNHLGKSSNFQKPRNIKGKPEAHFSLIHYAGTVDYNIIGWLQKNKDPLNETVVDLYKKSSLKMLSSLFANYAGFDTPIEKGKGKAKKGSSFQTVSALHRENLNKLMTNLRSTHPHFVRCIIPNETKSPGVIDNPLVMHQLRCNGVLEGIRICRKGFPNRILYGDFRQRYRILNPAAIPEGQFIDSRKGAEKLLGSLDIDHNQYKFGHTKVFFKAGLLGLLEEMRDERLSRIITRIQAQSRGVLSRMEFKKLLERRDS
notes: Native protein cut by proteases, not a recombinant construct; also called bovine cardiac S1 fragment; PPS-S1-Mava; source: purified from frozen bovine heart (Pel-Freez Biologicals); limited chymotryptic digestion of the full-length myosin, Mono-Q; trypsin present in the crystallization drops
B1: binds.

— article PMC11161628, “Omecamtiv mecarbil and Mavacamten target the same myosin pocket despite opposite effects in heart contraction” (Nature Communications, 2024)
